From article PMC5993284, “Peptide inhibitors of the anaphase promoting-complex that cause sensitivity to microtubule poison” (PLoS ONE, 2018)
Ends that are not written are not given here. * marks the point of attachment. Biotin = O=C1N[C@H]2[C@H](CS[C@H]2CCCCC(=O)*)N1

Legend:
[1] = target: Anaphase Promoting-Complex/Cyclosome (APC/C) isolated through Cdc16-TAP and kept on IgG beads (S. cerevisiae | S. cerevisiae (endogenous in yeast)) (UniProt P09798)
[2] = target: Anaphase Promoting-Complex/Cyclosome (APC/C) isolated through Cdc16-TAP and kept on IgG beads (S. cerevisiae | S. cerevisiae (endogenous in yeast)) (UniProt P09798); remark: listed apart in the source
Cdc20 = assay: Avidin-bead pull-down of full-length Cdc20 made by IVT/T; type: binding, Saccharomyces cerevisiae; conditions: biotinylated form; Avidin beads; rabbit reticulocyte lysate; Western blot; n = 3
Description: To determine if Tyc1 could interact directly with the APC/C a pure N-terminal biotinylated form of Tyc1 was incubated with purified APC/C. […] Thus, like Mad2-binding motif peptides, unexpectedly Tyc1 protein binds to and inhibits APC/C when present in excess leading to a microtubule poison sensitivity phenotype in vivo.
Supplementary file pone.0198930.s008.tif: S8 Fig Tyc1 can pull-down recombinant Cdc20 synthesized by IVT/T. A) A Western blot displaying the detection of Cdc20 protein made by IVT/T (left), where the epitope tag is at the N-terminus of the ORF. The IVT/T reaction yields a series of protein products that display full-length and lower molecular weights, potentially the result of pre-mature translation termination. An Avidin-bead pull-down using a biotinylated-Tyc1 (Bio-Tyc1) is shown (right). […] B) An Avidin-bead pull-down using a biotinylated-Tyc1-mut1 (Bio-Tyc1-mut1) (middle) and biotinylated-Tyc1-mut2 (Bio-Tyc1-mut2) are shown (right). […] (TIF) Click here for additional data file.

APC/C [3] = assay: APC/C activity promoted by mutant Cdc20 alleles (Pds1 remaining); type: biochemical, Saccharomyces cerevisiae
Description: (§1) The production of Cdc20 or Cdh1 was prepared by IVT/T reactions, where 16 μL of rabbit reticulocyte lysate, 20 μM L-methionine, 0.4 μg of plasmid DNA, and a volume of nuclease-free ddH2O for a total volume of 20 μL. This freshly synthesized Cdc20 or Cdh1 protein was used directly in all APC/C assays after a 1-hour synthesis reaction at room temperature. The APC/C was purified for enzyme assays from 1 mL of TAP-tagged Cdc16 yeast extract (SCSY51) where extract was mixed with 50 μL 50:50 slurry magnetic beads (Invitrogen, Norway) for 2 hours at 4 °C. After incubation, the beads were washed with 3 mL APC/C wash buffer (200 mM of HEPES, 150 mM of NaCl and 10% (v/v) of glycerol). APC/C bound to IgG magnetic beads was used directly in the enzyme assays.
(§2) APC/C assays were performed by adding the reaction contents in following order: 4.3 μL of QAH buffer, 20 μL of rabbit reticulocyte lysate containing Cdc20 or Cdh1 with or without an additional volume of recombinant checkpoint protein(s) or inhibitor peptides, 2.4 μL ubiquitin aldehyde (Boston Biochem, USA), APC/C, 16 μL pre-charged E1/E2/ATP/ubiquitin mix, and 13.3 μL of ^35S-Pds1 with QAH buffer (20 mM HEPES at pH 8.0, 100 mM NaCl, and 1 mM MgCl2). The E1/E2/ATP/ubiquitin mix were pre-charged by mixing 1 μL of E1 (Boston Biochem, USA), 1 μL of E2 (Boston Biochem, USA), 14.4 μL of ATP, 14.4 μL of […] (Boston Biochem, USA), and 17.2 μL of QAH buffer and incubated for 15 minutes at room temperature. Approximately 15 μL of samples were taken out at each time point, and the reaction was stopped by the addition of 2x protein sample buffer (125 mM Tris-HCl pH 6.8, 4% SDS, 20% glycerol, and 0.002% bromophenol blue, with 10% (final v/v) 2-mercaptoethanol added in fresh directly before use).
For APC/C activity assays dried-gels were exposed on a phosphor screen cassette to detect radio-labeled protein. The phosphor screen was scanned by a Typhoon phosphor-imager (GE Healthcare Bio-Sciences, USA), and radio-labeled protein bands in gels were quantified by employing the ImageQuant software (GE Healthcare Bio-Sciences, USA) according to the manufacturer’s protocols. Data were expressed as mean ± standard deviation, and was analyzed using Student’s t-test. Graphs were created using Kaliedograph 4.0 (Synergy Software, USA) and estimates of best-fit curves of a 4-parameter Hill equation were generated to obtain estimates for the median inhibitory concentrations (IC50) and Hill coefficients (Hc) using IgorPro 6.01 (Wavemetrics, USA).
By sequence alignment and amino acid homology alone, the budding yeast KILR-motif may be defined as 201-RILQ-204 (Fig 1A). However, the next residue, Tyrosine Y205 had previously been isolated in a genetic screen for spindle checkpoint by-pass alleles of Cdc20 [21], indicating this Y205 residue may be a target of the spindle checkpoint inhibition, and thus might also be a functional KILR-motif residue that contributes to APC/C activation. To clarify this possibility, we took the initial step to characterize several of the previously isolated spindle checkpoint by-pass mutant alleles of Cdc20 [21], and also Cdc20 mutants in the two highly conserved residues within the Mad2-binding motif, the aspartic acid at D197 of unknown function and the highly conserved Leucine L203 within the KILR-motif based on sequence alignment and homology. […]

APC/C [4] = assay: APC/C activity promoted by mutant Cdc20 alleles in the presence of Mad2 (Pds1 remaining); type: biochemical, Saccharomyces cerevisiae; conditions: 5.0 μM Mad2, n = 3
Description: as §1, §2
For inhibitor titration and time-course experiments, recombinant Bub3, Mad2, Mad3, and the Mad3-Bub3 complex were expressed and purified as previously described. Inhibitory peptides were synthesized by standard procedures and purified to 99% purity by HPLC (Kelowna International Scientific Inc., Taiwan). For inhibition of APC/C the co-factor Cdc20 or Cdh1 was made fresh by IVT/T, and pure recombinant checkpoint proteins or inhibitor peptides were added to the IVT/T mixture and incubated for an additional hour at room temperature. In titrations, a dilution series of the checkpoint protein(s) were made before incubation with the Cdc20 co-factor. […]
Our first goal was to measure the ability of the mutant alleles to promote APC/C activity in vitro. To ensure any observed change in APC/C activity reflected a change in function, and not a change in the amount of Cdc20 co-factor protein produced by IVT/T, the amounts of Cdc20 protein produced by IVT/T was measured, and no significant difference was observed (S4 Table). […]

[5] = target: Anaphase Promoting-Complex/Cyclosome (APC/C) isolated through Cdc16-TAP and kept on IgG beads (S. cerevisiae | S. cerevisiae (endogenous in yeast)) (UniProt P09798); remark: listed apart in the source

Anaphase Promoting-Complex/Cyclosome (APC/C) isolated through Cdc16-TAP and kept on IgG beads (S. cerevisiae | S. cerevisiae (endogenous in yeast)), sequence (P09798 whole entry, looked up, one chain of several): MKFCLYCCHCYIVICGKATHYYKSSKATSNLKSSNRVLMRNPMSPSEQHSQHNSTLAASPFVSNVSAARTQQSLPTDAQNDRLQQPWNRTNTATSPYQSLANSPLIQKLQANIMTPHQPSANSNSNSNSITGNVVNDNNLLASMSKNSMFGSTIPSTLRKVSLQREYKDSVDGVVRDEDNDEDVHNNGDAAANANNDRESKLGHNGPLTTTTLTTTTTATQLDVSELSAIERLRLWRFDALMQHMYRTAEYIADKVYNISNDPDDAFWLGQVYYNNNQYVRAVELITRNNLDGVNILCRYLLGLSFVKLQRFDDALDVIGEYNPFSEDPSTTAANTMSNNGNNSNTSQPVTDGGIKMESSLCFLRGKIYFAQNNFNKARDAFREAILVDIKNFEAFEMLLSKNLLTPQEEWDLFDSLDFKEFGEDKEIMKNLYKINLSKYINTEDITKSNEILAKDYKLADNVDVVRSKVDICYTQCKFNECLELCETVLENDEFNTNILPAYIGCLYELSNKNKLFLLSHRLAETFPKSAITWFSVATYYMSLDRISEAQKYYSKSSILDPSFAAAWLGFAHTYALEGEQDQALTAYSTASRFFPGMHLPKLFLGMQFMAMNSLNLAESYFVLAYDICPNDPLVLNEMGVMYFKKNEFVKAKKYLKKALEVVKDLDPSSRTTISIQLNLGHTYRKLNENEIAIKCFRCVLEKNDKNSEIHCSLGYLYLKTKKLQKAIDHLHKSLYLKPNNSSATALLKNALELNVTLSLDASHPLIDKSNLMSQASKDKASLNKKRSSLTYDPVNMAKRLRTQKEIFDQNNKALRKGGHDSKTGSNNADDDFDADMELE

non-biotinylated Tiny Yeast Comet 1 (Tyc1) (natural protein)
inhibition of APC/C^Cdc20 activity in vitro (35S-Pds1 substrate), titration of Tyc1; blocks the binding of co-factor Cdc20 to APC/C [1]: 50 µM

non-biotinylated PQ65 (Cdc20 169–232) (from UniProt P26309 169-232) (peptide)
inhibition of APC/C^Cdc20 activity in vitro (35S-Pds1 substrate), serial dilution of PQ65; blocks the binding of co-factor Cdc20 to APC/C [2]: < 50 µM

Bio-Tyc1: biotinylated-Tyc1 (Biotin-MKVLDDWFSRKFSKAVHGNNHGTISLSTLSYIRVHKLVK)
pull-down of full-length Cdc20 from IVT/T lysate (in words) (Cdc20): Both full-length and lower molecular weight forms of Cdc20 were observed

B1: Cdc20-127 (Y205N): spindle checkpoint by-pass mutant allele of Cdc20, Y205N (protein, UniProt P26309 1-610, looked up, variant Y205N)
APC/C activator protein CDC20: MPESSRDKGNAAISGNRSVLSIASPTKLNILSSDWSRNQGKVSKNSLKRSSSLNIRNSKRPSLQASANSIYSRPKITIGAPPLIRRDSSFFKDEFDAKKDKATFSAYSSRSYPTIGSESVVSQTSLSQPTTSREVDEQFTVAADRYIPILQGASQNKVDPETLHEALPPPNASPISHLRAQTKIVFKQNVAEACGLDMNKRILQNMPEPPKCSSLRQKSYIMKKRTHYSYQQEQKIPDLIKLRKINTNPERILDAPGFQDDFYLNLLSWSKKNVLAIALDTALYLWNATTGDVSLLTDFENTTICSVTWSDDDCHISIGKEDGNTEIWDVETMSLIRTMRSGLGVRIGSLSWLDTLIATGSRSGEIQINDVRIKQHIVSTWAEHTGEVCGLSYKSDGLQLASGGNDNTVMIWDTRTSLPQFSKKTHTAAVKALSWCPYSPNILASGGGQTDKHIHFWNSITGARVGSINTGSQVSSLHWGQSHTSTNGGMMNKEIVATGGNPENAISVYNYETKFKVAEVVHAHEARICCSQLSPDGTTLATVGGDENLKFYKIFDPRCTGRSREDGLMDGMLGLIGKEGCRTNDKENRSKNSSEIHTRRPSSTSQYLIR
ability of mutant Cdc20 to promote APC/C activity (in words) (APC/C [3]; vs wild type Cdc20, n = 3): consistently displayed a decrease in APC activity
ability of mutant Cdc20 to promote APC/C activity (in words) (APC/C [3]; vs wild type Cdc20, n = 3, listed as Cdc20-127): displayed decreased APC/C activity
ability of mutant Cdc20 to promote APC/C activity in the presence of Mad2 (in words) (APC/C [4]): consistently displayed APC activity in the presence of Mad2
ability of mutant Cdc20 to promote APC/C activity in the presence of Mad2 (in words) (APC/C [4]; listed as Cdc20-127): promote APC/C activity at the same level as control reactions even in the presence of 5.0 μM Mad2

B2: non-biotinylated DQ36 (Cdc20 197–232) (peptide)
peptide: DMNKRILQYMPEPPKCSSLRQKSYIMKKRTHYSYQQ
modifications: not fully specified
inhibition of APC/C^Cdc20 activity in vitro (35S-Pds1 substrate), titration of DQ36; blocks the binding of co-factor Cdc20 to APC/C [5]: 150 µM
